B1: ADP-ribose glycohydrolase OARD1 (Homo sapiens), Q9Y530 (parent)
chain: MASSLNEDPEGSRITYVKGDLFACPKTDSLAHCISEDCRMGAGIAVLFKKKFGGVQELLNQQKKSGEVAVLKRDGRYIYYLITKKRASHKPTYENLQKSLEAMKSHCLKNGVTDLSMPRIGCGLDRLQWENVSAMIEEVFEATDIKITVYTL
partner: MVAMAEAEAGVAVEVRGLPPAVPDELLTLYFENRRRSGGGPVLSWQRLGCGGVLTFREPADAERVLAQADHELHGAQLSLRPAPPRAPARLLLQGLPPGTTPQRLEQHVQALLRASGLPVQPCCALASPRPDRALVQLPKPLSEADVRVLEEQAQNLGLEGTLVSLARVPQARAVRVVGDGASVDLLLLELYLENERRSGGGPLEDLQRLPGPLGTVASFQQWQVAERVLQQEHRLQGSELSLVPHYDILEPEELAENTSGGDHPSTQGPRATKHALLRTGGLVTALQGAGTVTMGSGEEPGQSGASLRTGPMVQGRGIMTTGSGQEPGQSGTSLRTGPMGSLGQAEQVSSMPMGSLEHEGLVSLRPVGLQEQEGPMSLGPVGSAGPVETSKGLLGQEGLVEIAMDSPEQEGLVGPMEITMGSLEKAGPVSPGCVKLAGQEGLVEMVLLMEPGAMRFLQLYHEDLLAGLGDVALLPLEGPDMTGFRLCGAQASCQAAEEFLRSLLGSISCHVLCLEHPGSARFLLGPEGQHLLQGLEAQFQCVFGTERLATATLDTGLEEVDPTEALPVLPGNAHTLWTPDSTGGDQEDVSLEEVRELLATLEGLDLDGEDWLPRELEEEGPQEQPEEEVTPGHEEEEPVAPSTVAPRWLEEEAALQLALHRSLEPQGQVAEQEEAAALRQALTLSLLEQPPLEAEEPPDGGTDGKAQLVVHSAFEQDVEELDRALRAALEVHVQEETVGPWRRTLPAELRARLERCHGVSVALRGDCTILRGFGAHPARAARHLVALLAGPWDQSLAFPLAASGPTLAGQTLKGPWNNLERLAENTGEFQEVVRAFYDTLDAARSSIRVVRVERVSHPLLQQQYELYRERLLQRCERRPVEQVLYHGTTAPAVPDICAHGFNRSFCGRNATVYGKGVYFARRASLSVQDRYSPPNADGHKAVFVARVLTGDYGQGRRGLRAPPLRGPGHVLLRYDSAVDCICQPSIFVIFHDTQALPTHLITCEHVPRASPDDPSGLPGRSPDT
B2: ADP-ribose glycohydrolase OARD1 (Homo sapiens), Q9Y530 (parent)
chain: B1 chain

Variants of: B1
Details: with par10_human PARP10, Q53GL7

| Variant | effect of a mutation on the interaction |
| --- | --- |
| D125A | disrupting interaction |

Variants of: B1
Details: with par10_human PARP10, Q53GL7
Remark: another data set of the same source

| Variant | effect of a mutation on the interaction |
| --- | --- |
| K84A | disrupting interaction |

Variants of: B2
Details: with parp1_human PARP1, P09874
parp1_human PARP1, P09874, sequence (P09874 whole entry): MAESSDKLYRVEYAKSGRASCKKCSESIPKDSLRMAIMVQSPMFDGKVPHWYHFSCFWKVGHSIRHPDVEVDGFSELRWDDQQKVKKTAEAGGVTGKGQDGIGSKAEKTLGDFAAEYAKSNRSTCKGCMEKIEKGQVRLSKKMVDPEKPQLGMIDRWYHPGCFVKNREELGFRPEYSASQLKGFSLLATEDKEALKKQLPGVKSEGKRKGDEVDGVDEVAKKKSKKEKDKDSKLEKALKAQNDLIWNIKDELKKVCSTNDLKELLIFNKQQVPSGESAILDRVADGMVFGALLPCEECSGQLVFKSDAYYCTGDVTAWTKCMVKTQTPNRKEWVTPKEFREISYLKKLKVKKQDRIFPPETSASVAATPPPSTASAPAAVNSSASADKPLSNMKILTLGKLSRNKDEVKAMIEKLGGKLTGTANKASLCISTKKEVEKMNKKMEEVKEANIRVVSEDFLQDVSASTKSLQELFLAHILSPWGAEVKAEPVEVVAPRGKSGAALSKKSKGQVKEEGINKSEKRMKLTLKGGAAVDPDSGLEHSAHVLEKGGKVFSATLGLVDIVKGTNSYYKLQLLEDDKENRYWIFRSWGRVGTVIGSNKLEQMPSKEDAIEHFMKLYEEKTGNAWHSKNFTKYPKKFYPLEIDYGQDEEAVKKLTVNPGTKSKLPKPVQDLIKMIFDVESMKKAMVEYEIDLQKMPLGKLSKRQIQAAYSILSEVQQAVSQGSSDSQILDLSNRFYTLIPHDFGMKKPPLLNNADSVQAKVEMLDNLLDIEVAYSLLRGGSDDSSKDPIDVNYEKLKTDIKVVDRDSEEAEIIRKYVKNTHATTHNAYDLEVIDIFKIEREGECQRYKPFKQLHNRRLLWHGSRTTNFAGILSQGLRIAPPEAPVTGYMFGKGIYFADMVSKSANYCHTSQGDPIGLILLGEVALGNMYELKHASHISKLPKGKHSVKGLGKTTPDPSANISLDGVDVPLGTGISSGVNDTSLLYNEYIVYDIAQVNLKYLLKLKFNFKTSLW

| Variant | effect of a mutation on the interaction |
| --- | --- |
| D125A | disrupting interaction |

Variants of: B2
Details: with parp1_human PARP1, P09874
Remark: another data set of the same source

| Variant | effect of a mutation on the interaction |
| --- | --- |
| D125A | increasing interaction |

Variants of: B2
Details: with parp1_human PARP1, P09874
Remark: another data set of the same source

| Variant | effect of a mutation on the interaction |
| --- | --- |
| K84R | disrupting interaction |

Variants of: B2
Details: with parp1_human PARP1, P09874
Remark: another data set of the same source

| Variant | effect of a mutation on the interaction |
| --- | --- |
| K84A | disrupting interaction |

Variants of: B2
Details: with parp1_human PARP1, P09874
Remark: another data set of the same source

| Variant | effect of a mutation on the interaction |
| --- | --- |
| G123E | disrupting interaction |

Reference: IntAct's records for PubMed 23481255
